Measured values from US20250034594A1, “RNA-GUIDED GENOME RECOMBINEERING AT KILOBASE SCALE” (THE BOARD OF TRUSTEES OF THE LELAND STANFORD JUNIOR …, priority 2021, published 2025).

B1: SSAP_270: SEQ ID NO: 439; Lactococcus sp. DD01 (protein, listed as Lactococcus sp.)
chain: ANLTPTQTVLKSDAAKRKFEEVLGKKTNGFVGSLLSLVGSTNLKNVDSNSVMTAAMKAATLDLPIEPSLGFAYVIPYGREAQFQIGYKGLIQLAIRSGQVTKLNAGPVYENQFIKYDSLFEELEIDFSMPQGVEIAGYFASMELANGFRKIIYWDKEKVTAHGKRFSKSFNRSSSPWQTDFDAMATKTVLKAMLSTYAPLSTEMQQAIVADNESATPKDATPVTDDLVLEAVEDSKQIEENEIINDQVASENYQEPQGEPEVLDLEL
B2: SSAP_316: SEQ ID NO: 485; Companilactobacillus kedongensis (protein, listed as Companilactobacillus kedongensis)
chain: MKDLARIPVKELVRSDTIKSKFNDVLGKRAPQFISSIVNIVNSNQDLKNVDQTSVISSALVAASLDLPINQSFGYMYLVPYSGKAQPQMGYKGYIQLAQRSGQYKRLNAISVSKEKVPDKMVIFIPDYRMEEAETQIDMYQDHIEDVKAGRVEPTRCGKCDYCKSTAKLGKIVSMDDLID
B3: SSAP_22: SEQ ID NO: 191 (protein)
chain: SNELMTKAVTYEVNNEEVKLSGQIVKQYLTSGQAVTDQEVTMFIQLCRYQHLNPFLNEAYLVKFNGKPAQIITSKEAFMKRAESNPNYAGLKAGCIVERNGELIYTEGAFTLKTDNILGAWADVIRKDRREPTHVEISMDEFSKSQATWKSMPATMIRKTAIVNALREAFPQDLGALYTEDDKNPNEATQTTYKQEPEVNTTKTADVLAKKFSGAPQIKSVENVQESEEESNNASNHGEATEPVNNVEEPTATAEVEQGQLL
B4: SSAP_252: SEQ ID NO: 421; Bacteroides pyogenes DSM 20611 = JCM 6294 (protein)
chain: QVADPQSVLNSAVIAATLDLPINPNLGFAAIVPYNDRKSGKCIAQFQLMYKGLVELCLRSGQFASLIDEVVYEGQIVKKNKFTGEYIFDEDAKTSNKVIGYMAYFRLVNGFEKTFYMTSEEVTAHAKAYSQSFKSGYGVWKDNFDIMARKTVLKLLLSKYAPKSIEMQRAITFDQAAVKGDLTETNVDEAEIEYIDNESGSDKIKQAAEDAVIQSQQKTLL
modifications: Bacteroides pyogenes
B5: SSAP_178: SEQ ID NO: 347; Streptomyces sp. MZ04 (protein, listed as Streptomyces sp.)
chain: STNLAARVEARRQNPTTKQPARRGKAAQQPTLVQFVQSMRGEIARALPSHVASPERIARIALTELRRVDHLAECTQESFGGALMTCAALGLEPGGVGGEAYLLPFWNKKVRAYEVTLVIGYQGMVRLFWQHPAAAGLAAHTVHEGDEFDFEYGLEPFLRHKPARTGRGKPTDYYAVAKMANGGSAFVVMNVEDIEAIRHRSKARDAGPWSTDYGLRRHGAQDLHSAVVQVAAEVC
B6: SSAP_5: SEQ ID NO: 174 (protein)
chain: ANELGIFSVDNLNMTTIKQYLDGGGKASDAELVLLINLCKQNNMNPFMKEVYFIKYGNQPAQIVVSRDFYRKRAFQNPNFVGIEVGVIVLNKDGVLEHNEGTFKTHEQELVGAWARVHLKNTEIPVYVAVSYDEYVQMKDGHPNKMWTNKPCTMLGKVAESQALRMAFPAEFSGTYGEEEYPEPEKEPREVNGVKEPDRAQIESFDKEDYAAKKIEELKEKAQPQKEVVEETGEVIDEEPLEGF
B7: SSAP_134: SEQ ID NO: 303; Andreesenia angusta (protein, listed as Andreesenia angusta)
chain: SNLKNQLANKAGGTATKKQPQTMQDWIKVMEPQIKKALPSVITAERFTRMALTAISTNPKLAECTPESFMGALMNAAQLGLEPNTPLGQAYLIPYGKSVQFQVGYKGLMELAQRSGQFKSIYAHTVYENDEFEVEYGLTQNIVHKPNFDDRGKPIGFYAVYKLTNGGENFVFMTQREVEEFGKAKSKTFNNGPWKTDFEAMAKKTVLKQLLKYAPIKVEFQREIAQDATIKTEIAEDMTEVPEEMVEAEYEVVEQNTMAEDADLKGTPFETK
B8: SSAP_138: SEQ ID NO: 307; unclassified Coprococcus (protein, listed as Coprococcus sp.)
chain: ANNIDLKQELAEQASKVPAKKDEEVKLTKSMTIPDMVKAMMPEIKKALPAVMTPERFTRIALSALNTTPALNQCTPMSFLAALMNAAQLGLEPNTPLGQAYLIPYKNHGTLECQFQIGYKGLIELAYRSGQMQTIQAQTVYENDEFAYQYGLEPVLVHRPAYSDRGEVKYFYGIFKTVNGGYGMAVMSRAEMDLYAKTYSKAYDSSYSPWKSNYEDMAKKTVIKQALKYAPIKTDFQRALSFDETIKKEISLDMSTVKNELLDVA
B9: SSAP_17: SEQ ID NO: 186 (protein)
chain: ATNDELKNQLANKQNGGQVASAQSLDLKGLLEAPTMRKKFEKVLDKKAPQFLTSLLNLYNGDDYLQKTDPMTVVTSAMVAATLDLPIDKNLGYAWIVPYKGRAQFQLGYKGYIQLALRTGQYKSINVIEVRDGELLKWNRLTEEIELDLDNNTSEKVIGYCGYFQLINGFEKTVYWTRKEIEAHKKKFSKSDFGWKKDYDAMAKKTVLRNMLSKWGILSIDMQTAVTEDEAEPRERKDVTEDESIPDIIDAPITPSDTLEAGSEVQGSMI
B10: SSAP_69: SEQ ID NO: 238 (protein)
chain: ETIDIKQELASQAQTDSKKEVKLTKAMSIAEMIKAMMPEIKRALPSMITPERFTRIALSALNNTPELQACTPMSFISALLNAAQLGLEINSPLGHAYLIPYKNKGVLECQFQIGYLGLIALAYRNELMQTIQAQCVYENDEFLYEYGLNPKLVHRPATSDRGEPVFFYGLFKMINSGFGFCVMSKQEMDEFARTYSKGLASSFSPWKTSYNEMAKKTVIKQALKYAPIKTDFQKALSTDESIKYAISEDMTEAVNEIVSQNTEVA
B11: SSAP_102: SEQ ID NO: 271; Halomonas coralii (protein, listed as Halomonas coralii)
chain: TDQATAEPQEDLGKQLQQHSQRKPMPTTIQGMLKDDRFTGQIARALPKHITPDRISRIALTEVNKTPALGKCDPMSLFGSIIQSAQLGLELGGALGHAYLVPYKDQAQFIIGYRGMIDLARRSGQMVSLQAHTVHENDDFEFEYGLDEKLRHVPARGQRGPMIAVYAVAKLTGGGHQIEVMWKEDVDAIRQQSKAGNSGPWRDHYEEMAKKTAIRRLFKYLPVSVEMQKAVSLDEQAEAGVQDNNVFDGEFSYQEPE
B12: SSAP_49: SEQ ID NO: 218 (protein)
chain: TNNQLATQTKRNITTDPSLLTGADIKKYFDPQNLLTEKQVGQALALCKGRNLNPFANEVYIVAYTNRNGGKEFSLIVSKEAFLKRAAQCKDYEGFEAGVVVVDSEGVMHERKGAIMLPEDTLIGGWARVHRKNFKVPVEIVVSREEYDKKQSTWNTMPATMIRKVALVNALREAFPEDLGNMYTEDDGGETFDRIKDVTPQESREDVVARKMAEIEQFNKEQETNHADPEPAQTEETIQGELLDGELEY
B13: SSAP_214: SEQ ID NO: 383; Clostridium tunisiense (protein)
chain: TTKANVTSVKNALKEQIQVQQVAAQTDTSFQGVLTKQLQHQFKAIQSLVPKHVTPERLCRIGINAASRNPQLMNCTPETIVGAIVNCATLGLEPNLLGHAYIVPFYNNKTGKMEAQFQVGYKGALDLIRRTGAVSTLSAHEVYGPRSIFWTQYFY
modifications: Clostridium tunisiense

Each molecule was assayed on gene editing with Cas9 (assay: Screen of 322 new SSAP proteins, gene editing activity with Cas9 (Table 5)). Details: not given.
Assay type: cell-based
Parameters: Cas9 with SSAP activity: scale not given here
Outline: (§1)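 Read-out is gene editing activity. Candidates come from sequence data mining, are made synthetically, and are tested alongside either nuclease-active Cas9 or catalytically dead dCas9.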

Row | Molecule | Cas9 with SSAP activity
1 | B1 | 0.154
2 | B2 | 0.465
3 | B3 | 1.789
4 | B4 | −0.275
5 | B5 | −1.057
6 | B6 | −0.026
7 | B7 | −1.284
8 | B8 | −1.429
9 | B9 | −0.287
10 | B10 | −5.286
11 | B11 | −0.118
12 | B12 | −0.515
13 | B13 | −0.428

Same assay, conditions: normalized

Row | Molecule | Cas9 with SSAP activity (normalized)
14 | B1 | 0.174
15 | B2 | 0.410
16 | B3 | 4.337
17 | B4 | −0.560
18 | B5 | −0.929
19 | B6 | −0.032
20 | B7 | −1.104
21 | B8 | −0.887
22 | B9 | −0.195
23 | B10 | −0.810
24 | B11 | −0.065
25 | B12 | −0.176
26 | B13 | −0.545

These molecules were tested on gene editing with dCas9 (assay: Screen of 322 new SSAP proteins, gene editing activity with dCas9 (Table 5)). Details: not given.
Assay type: cell-based
Parameters: dCas9 with SSAP activity: scale not given here
Outline: as §1

Row | Molecule | dCas9 with SSAP activity
27 | B1 | −0.896
28 | B2 | −0.764
29 | B3 | −0.792
30 | B4 | −0.876
31 | B5 | −0.807
32 | B6 | −0.854
33 | B7 | −1.053
34 | B8 | −1.000
35 | B9 | −1.088
36 | B10 | −0.742
37 | B11 | −0.784
38 | B12 | −0.987
39 | B13 | −1.088

Same assay, conditions: normalized

Row | Molecule | dCas9 with SSAP activity (normalized)
40 | B1 | −0.293
41 | B2 | −0.279
42 | B3 | −0.867
43 | B4 | −0.635
44 | B5 | −0.626
45 | B6 | −0.392
46 | B7 | −0.424
47 | B8 | −0.320
48 | B9 | −0.491
49 | B10 | −0.240
50 | B11 | −0.325
51 | B12 | −0.289
52 | B13 | −1.120

What follows are molecules tested on gene editing with Cas9 and dCas9 (assay: Screen of 322 new SSAP proteins, activity across all experiments (Cas9 and dCas9, Table 5)). Details: not given.
Assay type: cell-based
Parameters: scale not given here
Outline: as §1

Row | Molecule | Activity across all experiments
53 | B1 | −0.371
54 | B2 | −0.150
55 | B3 | 0.498
56 | B4 | −0.575
57 | B5 | −0.932
58 | B6 | −0.440
59 | B7 | −1.168
60 | B8 | −1.214
61 | B9 | −0.687
62 | B10 | −3.014
63 | B11 | −0.451
64 | B12 | −0.751
65 | B13 | −0.758
